Measured values reported in patent US20140193421A1 (EISAI R AND D MANAGEMENT, published 2014).
Changes are numbered by the printed parent chain. Where no end group is shown, it is not given here. The star is where a group is joined. Biotin = O=C1N[C@H]2[C@H](CS[C@H]2CCCCC(=O)*)N1

T1: human XCR1-EGFP (human, UniProt P46094 1-333, EGFP fused to the receptor is not carried in the letters.)
T1 sequence: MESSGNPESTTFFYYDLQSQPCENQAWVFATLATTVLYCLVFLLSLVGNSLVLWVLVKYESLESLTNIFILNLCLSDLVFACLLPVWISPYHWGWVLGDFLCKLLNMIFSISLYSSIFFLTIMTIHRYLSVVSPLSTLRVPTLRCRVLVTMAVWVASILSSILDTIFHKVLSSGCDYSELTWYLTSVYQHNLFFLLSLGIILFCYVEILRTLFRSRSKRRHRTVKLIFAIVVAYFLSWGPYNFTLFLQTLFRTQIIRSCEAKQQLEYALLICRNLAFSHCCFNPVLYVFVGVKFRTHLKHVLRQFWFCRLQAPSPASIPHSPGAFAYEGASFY

T2: human XCR1 peptide 11-22 TFFYYDLQSQPC (human)
T2 peptide: Biotin-GSGSTFFYYDLQSQPC

T3: human XCR1 peptide 172-183 SSGCDYSELTWY (human)
T3 peptide: Biotin-GSGSSSGCDYSELTWY

T4: human XCR1 peptide 19-30 SQPCENQAWVFA (human)
T4 peptide: Biotin-GSGSSQPCENQAWVFA

T5: human XCR1 peptide 175-186 CDYSELTWYLTS (human)
T5 peptide: Biotin-GSGSCDYSELTWYLTS

B1: mouse anti-human XCR1 antibody (2H6) (antibody, IgG2b, V domains shown)
VH: QAYLQQSGAELVRPGASVKMSCKASGYTFSSHNMHWIKQTLRQGLEWIGAIYPGKGNTSYNQKFKGKATLTVDKSSSTAYMQLSSLTSEDSAVYFCARWGSVVGDWYFDVWGTGTTVTVSS
VL: DVVVTQTPLSLPVSLGDQASISCRSSQSLVHSNGNTYLHWYLQKPGQSPKLLIYRVSNRFSGVPDRFSGSGLGRDFTLKISRVEAEDLGVYFCSQSTFVPWTFGGGTKLEIK
B2: mouse anti-human XCR1 antibody (5G7) (antibody, IgG2b, V domains shown)
VH: B1 VH with S30T, M34L, I37V, L41P, E46Q, K55N, S59A, E89D
VL: DVVMTQTPLSLPVTLGNQASIFCRSSLGLVHRNGNTYLHWYLQKPGQSPKLLIYKVSHRFSGVPDRFSGSGSGTDFTLKISRVEAEDLGVYFCSQSTHVPWTFGGGTKLEIK
notes: also called 5G7 Mab; parent antibody 5G7
B3: mouse anti-human XCR1 antibody (11H2) (antibody, IgG2a, V domains shown)
VH: EVQLQQSGPVLVKPGASVKMSCKASGYTFTDYYVNWVKQSHGASLEWIGVSNPKNGDKSYNQKFKGKATLTVDKSSSTAYMELNSLTSEDSAVYYCARGLYYAGTYGYFDVWGTGTTVTVSS
VL: DIQMTQATSSLSASLGDRVTISCRASQDISNYLNWYQQKPDGTVKLLIYYTSRLHSGVPSRFRGSGSGTDFSLTISNLEQEDIATYFCQQGKTLPRTLGGGTKLEIK
B4: humanized anti-human XCR1 antibody HK1L2 (antibody, human IgG2, kappa, V domains shown)
VH: QVQLVQSGAEVKKPGASVKVSCKASGYTFTSHNLHWVRQAPGQRLEWMGAIYPGNGNTAYNQKFKGRVTITRDTSASTAYMELSSLRSEDTAVYYCARWGSVVGDWYFDVWGQGTLVTVSS
VL: DVVMTQSPLSLPVTLGQPASISCRSSLGLVHRNGNTYLHWFQQRPGQSPRLLIYKVSHRFSGVPDRFSGSGSGTDFTLKISRVEAEDVGVYYCSQSTHVPWTFGQGTKVEIKR
B5: humanized anti-human XCR1 antibody HK5L5 (antibody, human IgG2, kappa, V domains shown)
VH: B4 VH with R44G, I70M, A76T, A79V
VL: B4 VL with V2I, S7T, L15P, F41Y, Q42L, R44K, R50Q

How the values were obtained:
human XCR1-EGFP [1] = molecular target: T1, human XCR1-EGFP; assay: cell-based or functional assay
human XCR1-EGFP [2] = molecular target: T1, human XCR1-EGFP; assay: cell-based or functional assay; remark: listed apart in the source
human XCR1-EGFP [3] = molecular target: T1, human XCR1-EGFP; assay: competitive ligand binding assay, FACS on human XCR1-EGFP BaF3 cells; competitor human XCL1-SSS-His(10) at 0.12 µg/mL
Experimental: The competitive ligand binding assay was performed according to the following procedure. Parent BaF3 cells and human XCR1-EGFP-expressing BaF3 cells were mixed at a 1:1 ratio, and suspended in a FACS buffer (1% FBS-containing PBS⁻ (Sigma)). The cells were blocked for 10 minutes on ice with a FACS buffer containing 10% rat serum. The cells were then incubated for 20 minutes on ice with mouse anti-human XCR1 antibodies (2H6, 5G7, or 11H2), mouse isotype control antibodies, IgG2a (eBioscience, #16-4724-85), or IgG2b (eBioscience, #16-4732-85) at various concentrations from 0 to 150 μg/mL. Next the cells were incubated for 30 minutes on ice with human XCL1-SSS-His(10) at a saturating concentration of 0.12 μg/mL. The cells were washed with the FACS buffer three times, and then incubated for 20 minutes on ice with anti-6×His tag antibody (BETHYL, #A190-114A, diluted at 1:100 in FACS buffer). […] Next the cells were once again washed three times with the FACS buffer, and then suspended in FACS buffer. The fluorescence intensity was measured using a FACSCanto II cell analyzer (BD Bioscience).

[4] = molecular target: T2, human XCR1 peptide 11-22 TFFYYDLQSQPC; assay: peptide ELISA on streptavidin plates
Experimental: (§1) Streptavidin-coated microtiter plates (Perkin Elmer) were coated with 50 μg/mL of peptide per well in a volume of 50 μL, and incubated at room temperature for 1 hour. The peptide solution was removed and PBS⁻ containing 4% Block-Ace was added to each well and incubated overnight at 4° C. Each well was washed three times with an ELISA wash buffer (0.02% Tween20 in PBS−). Anti-human XCR1 antibodies (2H6, 5G7, or 11H2) were added to each well in amount of 10 μg/mL, and incubated for 6 hours at room temperature. Each well was washed three times with the ELISA wash buffer. Horseradish peroxidase-conjugated donkey anti-mouse IgG antibody (Jackson, #715-035-150), diluted 1:5,000 in the ELISA wash buffer, was added to each well and incubated for 1 hour at room temperature. Each well was washed three times with the ELISA wash buffer. TMBZ (3,3′,5,5′ tetramethyl benzidine; Sigma) was added to each well and incubated at room temperature. The reaction was stopped with 2NH₂SO₄, and A₄₅₀ₙₘ was measured by Arvo plate reader (PerkinElmer).

[5] = molecular target: T3, human XCR1 peptide 172-183 SSGCDYSELTWY; assay: peptide ELISA on streptavidin plates
Experimental: as §1

[6] = molecular target: T4, human XCR1 peptide 19-30 SQPCENQAWVFA; assay: peptide ELISA on streptavidin plates
Experimental: as §1

[7] = molecular target: T5, human XCR1 peptide 175-186 CDYSELTWYLTS; assay: peptide ELISA on streptavidin plates
Experimental: as §1

human XCR1-EGFP [8] = molecular target: T1, human XCR1-EGFP; assay: cell-based or functional assay; remark: listed apart in the source

| Binder | IC50 (nM), chemotaxis assay (human XCR1-EGFP [1]) [nM] | IC90 (nM), chemotaxis assay (human XCR1-EGFP [1]) [nM] | IC50 of growth suppression with saporin-conjugated Fab anti-mouse IgG secondary antibody (human XCR1-EGFP [2]) [pM] | concentration of complete inhibition of cell migration, chemotaxis assay (human XCR1-EGFP [2]) [µg/mL] | IC50 (human XCR1-EGFP [3]) [pM] | binding result [4] | binding result [5] | binding result [6] | binding result [7] | IC50 (nM), chemotaxis assay, Assay-1 (human XCR1-EGFP [8]) [nM] | IC50 (nM), chemotaxis assay, Assay-2 (human XCR1-EGFP [8]) [nM] | IC50 (nM), chemotaxis assay, Assay-3 (human XCR1-EGFP [8]) [nM] |
| --- | --- | --- | --- | --- | --- | --- | --- | --- | --- | --- | --- | --- |
| B1 | 1.28 | 7.6 | 141 | ~3 | 37000 |  |  |  |  |  |  |  |
| B2 | 0.63 | 2.52 | 17 | ~3 | 6900 |  |  |  |  |  |  |  |
| B3 | 0.99 | 6.32 | 155 | ~3 | 23800 | no binding (tested: 10 µg/mL) | no binding (tested: 10 µg/mL) | no binding (tested: 10 µg/mL) | no binding (tested: 10 µg/mL) |  |  |  |
| B4 |  |  |  |  |  |  |  |  |  | 0.1 | 0.25 | 0.12 |
| B5 |  |  |  |  |  |  |  |  |  | 0.52 | 0.36 | 0.2 |
